Measured values reported in patent US20020037514A1, “Identification of nuclear receptor-dependent coregulator recruitment” (priority 2000, published 2002).

What was measured:
RARγ-V5/RXRα heterodimer [1] = target: T1, RARγ-V5/RXRα heterodimer (Homo sapiens, UniProt P13631); assay: DNA modified immunoprecipitation, co-repressor N-CoR recruitment (Example 6); type: biochemical; details: ligand 1 μM
Method: Immunoprecipitation with mouse anti-V5 antibody and Western analysis were conducted as set forth above.

[2] = target: T2, RARα-V5/RXRγ/DR-5 ternary complex (Homo sapiens, UniProt P10276); assay: LXD peptide competition of ATRA-induced co-activator recruitment (Example 7, FIG. 8A); type: biochemical; details: DR-5 RARE; for effect of peptide on ATRA-induced recruitment of SRC-1: SRC-1 peptides at 40 μl (so in the source); for effect of peptide on ATRA-induced recruitment of ACTR: ACTR peptides at 20 μl (so in the source)
T2 construct: the nuclear receptor subunits used in the invention are full length nuclear receptor monomer subunits; expressed in transfected cells; host or cells: CV-1 (green monkey kidney), whole-cell lysate
T2 sequence (P10276 1-462): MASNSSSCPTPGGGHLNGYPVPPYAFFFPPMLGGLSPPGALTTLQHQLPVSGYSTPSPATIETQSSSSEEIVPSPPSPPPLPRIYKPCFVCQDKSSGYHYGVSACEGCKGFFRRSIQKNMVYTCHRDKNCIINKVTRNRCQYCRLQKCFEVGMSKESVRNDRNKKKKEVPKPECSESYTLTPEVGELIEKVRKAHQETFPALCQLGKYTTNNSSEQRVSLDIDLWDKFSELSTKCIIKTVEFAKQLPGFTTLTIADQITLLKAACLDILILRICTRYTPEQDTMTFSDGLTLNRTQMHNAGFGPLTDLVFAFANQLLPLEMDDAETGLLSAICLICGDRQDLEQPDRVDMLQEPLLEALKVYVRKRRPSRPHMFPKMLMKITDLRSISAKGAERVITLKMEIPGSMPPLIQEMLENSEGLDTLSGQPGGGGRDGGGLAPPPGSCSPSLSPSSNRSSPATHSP
T2 sequence (P28705 1-463 partner): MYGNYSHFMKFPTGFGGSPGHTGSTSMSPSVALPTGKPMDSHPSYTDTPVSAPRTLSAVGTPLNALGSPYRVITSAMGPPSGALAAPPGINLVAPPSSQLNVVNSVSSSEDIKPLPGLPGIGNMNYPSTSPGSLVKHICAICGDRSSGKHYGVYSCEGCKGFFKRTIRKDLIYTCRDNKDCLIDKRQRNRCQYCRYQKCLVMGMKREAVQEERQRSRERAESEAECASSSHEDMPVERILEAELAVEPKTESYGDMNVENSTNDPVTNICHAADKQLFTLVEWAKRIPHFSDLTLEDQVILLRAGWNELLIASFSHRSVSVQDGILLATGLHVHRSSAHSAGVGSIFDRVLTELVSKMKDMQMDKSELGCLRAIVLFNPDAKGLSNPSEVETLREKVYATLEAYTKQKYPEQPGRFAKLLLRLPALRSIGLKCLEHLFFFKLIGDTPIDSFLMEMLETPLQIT
Excerpt: (§1) Nolte, R. T. et al., Nature 395:137-143 (1998). We addressed the importance of each of the three LXDs in mediating co-activator-receptor interaction using synthetic peptides comprising the LXD1, LXD2 or LXD3 amino acid sequences as competitors with SRC-1 in the DNA modified immunoprecipitation methods of the present invention. These peptides have the following amino acid sequences (with the characteristic LXXLL motif shown in bold):
(§2) Transfection, DR-5 oligonucleotide treatment, ligand treatment, immunoprecipitation and detection of associated co-factors were performed essentially as shown in the previous Examples. CV-1 cells were transfected with plasmids expressing either RARα/RXRγ-V5 or with RARγ/RXRα-V5. Synthetic LXD peptides were added to the cell lysate before the addition of retinoids at a concentration of 20 (ACTR) and 40 (SRC-1) […].

RARγ/RXRα heterodimer = target: T3, RARγ/RXRα heterodimer (Homo sapiens, UniProt P13631); assay: LXD peptide competition of ATRA-induced co-activator recruitment (Example 7, FIG. 8B); type: biochemical; details: DR-5 RARE, compared with the RARα/RXRγ experiment
T3 sequence (P13631 1-454): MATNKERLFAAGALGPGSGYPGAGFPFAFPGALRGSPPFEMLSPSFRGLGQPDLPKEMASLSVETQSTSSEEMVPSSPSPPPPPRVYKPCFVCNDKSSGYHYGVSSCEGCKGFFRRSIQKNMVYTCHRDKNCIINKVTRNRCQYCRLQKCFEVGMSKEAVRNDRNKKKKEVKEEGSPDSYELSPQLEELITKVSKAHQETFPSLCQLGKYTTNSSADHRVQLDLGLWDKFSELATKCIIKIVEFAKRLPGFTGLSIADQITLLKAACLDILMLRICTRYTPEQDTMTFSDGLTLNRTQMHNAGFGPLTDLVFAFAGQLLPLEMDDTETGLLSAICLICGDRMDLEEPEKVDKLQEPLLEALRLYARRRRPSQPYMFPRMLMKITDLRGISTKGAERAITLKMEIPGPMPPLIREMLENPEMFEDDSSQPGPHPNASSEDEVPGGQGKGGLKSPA
T3 sequence (P19793 1-462 partner): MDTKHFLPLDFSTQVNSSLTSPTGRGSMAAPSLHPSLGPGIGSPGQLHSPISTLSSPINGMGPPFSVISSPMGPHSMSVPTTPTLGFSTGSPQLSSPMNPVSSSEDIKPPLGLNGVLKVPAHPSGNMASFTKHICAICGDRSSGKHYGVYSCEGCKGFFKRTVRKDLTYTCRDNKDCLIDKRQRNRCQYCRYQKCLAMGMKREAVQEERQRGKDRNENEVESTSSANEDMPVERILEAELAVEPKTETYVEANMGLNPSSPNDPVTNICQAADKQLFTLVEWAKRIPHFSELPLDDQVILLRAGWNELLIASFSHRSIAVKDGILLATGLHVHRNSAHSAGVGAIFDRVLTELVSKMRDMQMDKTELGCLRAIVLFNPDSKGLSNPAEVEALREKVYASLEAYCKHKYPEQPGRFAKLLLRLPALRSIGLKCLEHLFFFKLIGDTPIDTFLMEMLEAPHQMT
Excerpt: as §1, §2

[3] = target: RARα/RXR heterodimer bound to a DR-5 retinoic acid receptor response element (Example 9) (human) (UniProt P10276); assay: DNA dependent co-IP with DR-5 RARE, Western anti-ACTR; 1 uM ligand AGN196412
[4] = target: RARβ-V5/RXRα heterodimer (human) (UniProt P10826); assay: anti-V5 co-IP from CV-1 lysate, Western anti-SRC-1; 1 uM AGN 194204 with DR-5 RARE against 1 uM TTNPB
[5] = target: RARα/RXR heterodimer bound to a DR-5 retinoic acid receptor response element (Example 9) (human) (UniProt P10276); assay: DNA dependent co-IP with DR-5 RARE, Western anti-SRC-1; 1 uM ligand AGN194365
[6] = target: RARα/RXR heterodimer bound to a DR-5 retinoic acid receptor response element (Example 9) (human) (UniProt P10276); assay: DNA dependent co-IP with DR-5 RARE, Western anti-SRC-1; 1 uM ligand AGN194794, 196382 or 196412 (which ligand gives which end is not told)
RARγ-V5/RXRα heterodimer [7] = target: T1, RARγ-V5/RXRα heterodimer; assay: anti-V5 co-IP from CV-1 lysate, Western anti-N-CoR; DR-5 RARE, 1 uM ligand

Sequence of RARβ-V5/RXRα heterodimer (human) (P10826 other isoform, or with tags, fused parts or gaps): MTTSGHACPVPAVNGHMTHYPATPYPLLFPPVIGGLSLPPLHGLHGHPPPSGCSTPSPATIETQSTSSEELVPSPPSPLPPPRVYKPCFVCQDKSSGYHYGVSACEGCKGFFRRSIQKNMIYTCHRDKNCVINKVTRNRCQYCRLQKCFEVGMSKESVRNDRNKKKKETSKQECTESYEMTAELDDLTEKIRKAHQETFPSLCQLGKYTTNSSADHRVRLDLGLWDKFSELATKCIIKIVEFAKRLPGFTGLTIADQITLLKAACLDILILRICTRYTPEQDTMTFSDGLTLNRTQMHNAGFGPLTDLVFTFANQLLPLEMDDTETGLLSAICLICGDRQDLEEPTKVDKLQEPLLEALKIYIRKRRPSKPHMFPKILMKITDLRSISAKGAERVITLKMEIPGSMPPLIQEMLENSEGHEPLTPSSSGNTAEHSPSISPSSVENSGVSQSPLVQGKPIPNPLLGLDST

Cc1ccc(C2CCC(C)(C)c3ccc(C#Cc4ccc(C(=O)O)cc4)cc32)cc1 (centres unmarked) [AGN 193109]
N-CoR recruitment compared to AGN 193840 (RARγ-V5/RXRα heterodimer [1]; with DR-5 RARE): approximately two-fold increase
N-CoR recruitment (RARγ-V5/RXRα heterodimer [1]; with DR-5 RARE 0.5 μg/ml): led to N-COR recruitment
N-CoR recruitment (RARγ-V5/RXRα heterodimer [1]; with G-5-G DNA element instead of DR-5 RARE): failed to result in the detection of co-repressor

CC1(C)CCC(c2ccc(F)cc2)c2cc(C#Cc3ccc(C(=O)O)cc3)ccc21 (centres unmarked) [AGN 193840]
N-CoR recruitment (RARγ-V5/RXRα heterodimer [1]; with DR-5 RARE 0.5 μg/ml): led to N-COR recruitment

KESKDHQLLRYLLDKDEKDLRS (Nuclear co-activator LXD-containing peptide) [SRC-1 LXD3]
effect of peptide on ATRA-induced recruitment of SRC-1 [2]: completely abolished

KYSQTSHKLVQLLTTTAEQQLR (Nuclear co-activator LXD-containing peptide) [SRC-1 LXD1]
amount of SRC-1 associated in the presence of peptide (RARγ/RXRα heterodimer): somewhat greater
effect of peptide on ATRA-induced recruitment of SRC-1 [2]: no effect

LESKGHKKLLQLLTCSSDDRGH (Nuclear co-activator LXD-containing peptide) [ACTR LXD1]
effect of peptide on ATRA-induced recruitment of ACTR [2]: abolished

LLQEKHRTLHKLLQNGNSPAEV (LLQEKHRILHKLLQNGNSPAEV; Nuclear co-activator LXD-containing peptide) [ACTR LXD2]
effect of peptide on ATRA-induced recruitment of ACTR [2]: abolished

nuclear receptor co-activator ACTR (other; other documents disagree on this pair)
% recruitment relative to TTNPB [3]: 65%

nuclear receptor co-activator SRC-1, endogenously expressed by CV-1 cells
amount of SRC-1 detected compared to treatment with TTNPB [4]: 30%

nuclear receptor co-activator SRC-1, endogenously expressed by CV-1 cells (other; other documents disagree on this pair)
% recruitment compared to TTNPB [5]: 65%
% recruitment relative to TTNPB [6]: 23 to 32%

nuclear receptor co-repressor N-CoR
fold increase in N-CoR recruitment with AGN 193109 compared to AGN 193840 (RARγ-V5/RXRα heterodimer [7]): 2 fold
